Among the data in doi:10.1101/2024.09.30.615892 are binding and Kd values, retold here.

Data set [1] relates to T1, EppR-His6 (Acinetobacter baumannii ATCC17978), ORF:cce4f89b.
T1 sequence: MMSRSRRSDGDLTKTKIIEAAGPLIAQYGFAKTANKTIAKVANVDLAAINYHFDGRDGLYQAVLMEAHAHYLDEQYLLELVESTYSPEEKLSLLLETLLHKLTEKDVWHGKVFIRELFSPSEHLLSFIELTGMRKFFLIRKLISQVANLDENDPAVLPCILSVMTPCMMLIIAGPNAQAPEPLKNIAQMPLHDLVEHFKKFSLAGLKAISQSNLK
The data set is described as follows: EMSA.

Data set [2] deals with EppR-His6 (Acinetobacter baumannii ATCC17978). Put plainly: EMSA. (In general: Mobility shift assays separate free from complexed probe on a gel.)

Turning to “AATAAAGTAGAGCACAGCTTAATTTCAAATTTAAAAGTTGTGGATAAACAAATTGATCTAGAAAAAATGATCAACGGATAAAGGAATATTTAATTTTTTTATGCGGGCCTCTACCGCTTATAGAACAGTTTTTAAACAATTTTACTTATAGCTTCATTCA (double strand) [umuDC0636-0637 promoter]”, the binding entry in data set [1] is “binds”.

In the case of “ACTCATATTTAAGTGTTCAGAATTTCATTGATAAAAATCAAAACAGTCAGTAATAAGAACTATTTCACAATAGGTTTTGATTCTCTTCAAATTACCATTTCCGTTTTAACATCCCTGTTAAAAGCAAAATGGATTAAAATCTGATCATGAAATTTATTGTTATGCAAAAAAAATATTTCGTCAACTTGAAAATGTAACTTTTTCAAGTTACATTGTTTGTGTAGGATTTGAACGGTGAAATGGAGGCGAT (double strand) [umuDAb (1389) promoter]”, the binding result in data set [1] is listed as “binds”.

Broadly, the Kd is the concentration at which binding is half-saturated. Higher therefore signals lower affinity. Take “CTTTTTTATTCATCTTTTTGGCCTTCTTATTAAATTCAAATTTACATAGTTTAAATTCAATTTAAATTTAAATTACCTTAATCTTTGAATAAAAGATATACTTTTATGATGAAATAAAATTAGGTTTAAACATGTCC (double strand) [eppR promoter]”: the Kd in data set [1] was 123 nM.

In the case of “ATGTTTCCCCTAGCTTGATTTTGTAACATATTCAAGATGATATTCTAGAGATGAGCATAAATTCAAATTTAAAAAGTTGTGGATAAACAAGGGGAAGTCAAAAACTGACGTAGCCAAAAGTGCATTTGGTCGGAATTTATGCATTGCTGTACAGTGAGGCAACCATAGCATGGGAATCAAAATATTAGCTTTGAGATTGTAAATCTTTGTGGAACTTAATGTTCCACACTATTGCTTATTTATAGCAAAT (double strand) [umuDC1174-1173 promoter]”, the binding result in data set [1] is “binds”.

Substance eppR promoter yielded a dissociation constant (Kd) in data set [2] of 123 nM.

As for “ACCATTTTGAAATCGTAACAAATTCAAGATAAATGGTAGAGTTGAGTAAAGAGAAATTCAAATTTAAAAAATTGTGGATAAACAAGTAAAAGTCAAAAATTGTCGCAGTATCTGGCGCATTTGGTCGGAAATTCTTCAGTTCTGATCTAG (double strand) [umuC2015 promoter]”, in data set [1], the binding result is recorded as “binds”.

For the substance “TATTTCATCCCCTTACTCATTAACTGAAATCTGCATTTTGAATTTGTAACATAATCAAGTTAACAAAATTACGGGCTGATATCTAGGGGAGTTTCAGTTGTTCGTCGAAATTATAGGTAGGAGATAAAATCTATGAAATGTCAGTTATTGATATGGAAATGTCTGAAAATGATAAGTTTTAATTGGTTATGATCGGAAATATAAGAGCTATATTTAATGGATGAGTTGAGTCTTTTAAATGTAGTAATGC (double strand) [umuC2008 promoter]”, the binding result in data set [1] is “binds”.
